Substrate in this data set: Nc1nc2c(ncn2[C@@H]2O[C@H](COP(=O)(O)OP(=O)(O)OP(=O)(O)O)[C@@H](O)[C@H]2O)c(=O)[nH]1
In words: Malachite green phosphate release, Michaelis-Menten fit. The format is biochemical, Sulfolobus acidocaldarius. The conditions noted are these: 65 °C, 0-500 µM GTP, 50 mM Tris pH 8.0, 150 mM NaCl, 10 mM MgCl2, 10 µM SaGPN.

B1: SaGPN (Sulfolobus acidocaldarius DSM 639) (protein)
chain: MYFIFVLGTAGSGKTTLVKALQDYLLNNELDTAIINLDPAVEVLPYKPDIDAREYVDVYDVMNKYELGPNSSLVISVDLLLTKAKELKEDLNQLQANYVLVDTPGQIELFAYRDTGKILSSFISEGSKSVSVFLFDSYLSKDPKSFLSLFLLSSSIKFRIDMPQISVLSKVDLLSSSELERMRSWIEDGSIIDELGSIDEYSFELVKTIVENLESFPIPVSSTNFSGLDQLYAEVQKVLAGGEDFETEEPNPRL
notes: E. coli BL21(DE3) Rosetta; Y2-A240 built, 14 C-terminal residues disordered
Regarding B1, the Km (commonly the concentration of substrate that gives half-maximal velocity) is on record as 40.48 µM.

Source of the values: paper PMC10746158, “Archaeal GPN-loop GTPases involve a lock-switch-rock mechanism for GTP hydrolysis” (mBio, 2023).
